Reference: patent publication US20160219844A1 (published 2016)

Biological target: T1, green fluorescent protein (GFP) peptide on H-2Kd (mouse)
T1 peptide: HYLSTQSAL
Assay: multimer staining
Description: FIG. 1 is a pair of graphs showing detection of GFP-specific CD8+ T cells in founder αGFP mice generated by somatic cell nuclear transfer (“SCNT”). Cells were collected from the lymph nodes of founder αGFP mice. The cells were stained for CD8 and an anti-H-2K^d-GFP₂₀₀₋₂₀₈ pentamer. Representative FACS is shown in all 14 founders. Note that these are founder mice and thus chimeric.

binding result: recognises
B1: GFP-specific T cell receptor (αGFP TCR) of SEQ ID NOs 2 and 4 (TCR, V domains shown)
Valpha: QQKVQQSPESLSVPEGGMASFNCTSSDRNFQYFWWYRQHSGEGPKALMSIFSDGDKKEGRFTAHLNKASLHVSLHIRDSQPSDSALYFCAASHDTNAYKVIFGKGTHLHVLP
Vbeta: DPKIIQKPKYLVAVTGSEKILICEQYLGHNAMYWYRQSAKKPLEFMFSYSYQKLMDNQTASSRFQPQSSKKNHLDLQITALKPDDSATYFCASSQGAGIYNSPLYFAAGTRLTVT
